# T1: recombinant murine EphB4-Fc fusion protein (mouse, UniProt P54761 16-539)
# T1 construct: extracellular domain; also called mEphB4; mu EphB4; not shown: Fc part, not described
# T1 sequence (looked up): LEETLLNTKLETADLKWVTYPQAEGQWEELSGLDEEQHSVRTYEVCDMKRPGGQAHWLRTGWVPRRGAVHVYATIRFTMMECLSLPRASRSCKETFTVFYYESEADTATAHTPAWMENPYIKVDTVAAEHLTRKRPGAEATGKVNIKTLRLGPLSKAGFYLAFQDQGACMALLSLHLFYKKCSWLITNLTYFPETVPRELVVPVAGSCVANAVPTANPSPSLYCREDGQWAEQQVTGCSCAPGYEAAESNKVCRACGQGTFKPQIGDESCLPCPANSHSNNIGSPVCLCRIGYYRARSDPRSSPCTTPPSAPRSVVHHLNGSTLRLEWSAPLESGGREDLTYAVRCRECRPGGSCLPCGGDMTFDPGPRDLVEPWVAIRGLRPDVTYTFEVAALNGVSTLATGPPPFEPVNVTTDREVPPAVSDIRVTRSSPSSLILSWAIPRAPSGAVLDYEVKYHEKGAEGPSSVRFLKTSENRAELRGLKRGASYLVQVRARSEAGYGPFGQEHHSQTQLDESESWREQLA
# T2: myc-tagged human EphB4 on transfected CHO cells (human, UniProt P54760 16-987)
# T2 construct: whole, on cells; also called CHO-EphB4; CHO-hEphB4; not shown: myc tag
# T2 sequence (looked up): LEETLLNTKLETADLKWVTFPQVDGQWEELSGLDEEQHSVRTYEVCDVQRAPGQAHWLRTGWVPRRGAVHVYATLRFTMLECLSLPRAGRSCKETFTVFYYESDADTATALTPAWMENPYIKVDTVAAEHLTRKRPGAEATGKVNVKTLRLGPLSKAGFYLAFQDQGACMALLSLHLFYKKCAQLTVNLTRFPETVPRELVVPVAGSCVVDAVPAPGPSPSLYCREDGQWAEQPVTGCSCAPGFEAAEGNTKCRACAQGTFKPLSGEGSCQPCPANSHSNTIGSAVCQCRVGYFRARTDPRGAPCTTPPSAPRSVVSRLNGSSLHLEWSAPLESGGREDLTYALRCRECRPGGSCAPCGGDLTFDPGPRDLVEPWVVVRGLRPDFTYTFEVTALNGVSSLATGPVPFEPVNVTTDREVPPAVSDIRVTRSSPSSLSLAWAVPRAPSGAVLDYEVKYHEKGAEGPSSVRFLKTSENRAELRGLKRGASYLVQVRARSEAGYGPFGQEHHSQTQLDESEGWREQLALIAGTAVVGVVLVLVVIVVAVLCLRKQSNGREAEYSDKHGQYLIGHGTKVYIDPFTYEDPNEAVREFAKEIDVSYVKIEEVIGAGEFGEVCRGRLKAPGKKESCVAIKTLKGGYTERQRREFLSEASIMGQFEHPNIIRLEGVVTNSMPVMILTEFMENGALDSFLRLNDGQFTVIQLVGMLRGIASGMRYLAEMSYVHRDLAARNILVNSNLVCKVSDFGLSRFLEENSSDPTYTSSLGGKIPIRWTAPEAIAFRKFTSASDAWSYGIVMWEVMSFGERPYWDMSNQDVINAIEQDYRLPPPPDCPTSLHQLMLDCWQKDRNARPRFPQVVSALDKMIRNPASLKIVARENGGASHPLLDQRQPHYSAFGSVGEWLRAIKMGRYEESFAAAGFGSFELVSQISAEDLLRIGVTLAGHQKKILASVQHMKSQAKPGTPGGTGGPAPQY
# T3: recombinant human EphB4-Fc fusion protein (human, UniProt P54760 16-539)
# T3 construct: extracellular domain; also called hEphB4; hu EphB4-Fc
# T3 sequence (looked up): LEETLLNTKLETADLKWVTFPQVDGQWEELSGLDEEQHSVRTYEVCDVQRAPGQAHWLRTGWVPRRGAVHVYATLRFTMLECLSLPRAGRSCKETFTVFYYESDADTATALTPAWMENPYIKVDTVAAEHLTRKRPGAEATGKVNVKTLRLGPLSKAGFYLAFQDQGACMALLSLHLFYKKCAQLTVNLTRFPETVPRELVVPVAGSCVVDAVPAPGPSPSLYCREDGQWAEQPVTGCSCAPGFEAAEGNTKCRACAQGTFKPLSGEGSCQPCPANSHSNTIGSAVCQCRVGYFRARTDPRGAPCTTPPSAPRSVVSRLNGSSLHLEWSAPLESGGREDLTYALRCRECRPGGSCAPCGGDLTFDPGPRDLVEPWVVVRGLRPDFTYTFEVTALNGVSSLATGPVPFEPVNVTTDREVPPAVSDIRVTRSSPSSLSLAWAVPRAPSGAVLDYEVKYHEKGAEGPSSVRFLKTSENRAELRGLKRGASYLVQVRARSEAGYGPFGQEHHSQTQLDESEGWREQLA
# B1: MOR03639 Fab (Fab, V domains shown)
# VH: QVQLVESGGGLVQPGGSLRLSCAASGFTFSNYYLHWVRQAPGKGLEWVSGISYSGSSTYYADSVKGRFTISRDNSKNTLYLQMNSLRAEDTAVYYCARFYQRRQIPHGYDVWGQGTLVTVSS
# VL: DIELTQPPSVSVAPGQTARISCSGDNIGDYYVHWYQQKPGQAPVLVIYRDSNRPSGIPERFSGSNSGNTATLTISGTQAEDEADYYCGSYDMPFGGTVFGGGTKLTVLG
# notes: Monomeric HuCAL Fab (VH3, lambda3), purified, MH-tagged
# B2: MOR03640 Fab (Fab, V domains shown)
# VH: QVQLVESGGGLVQPGGSLRLSCAASGFTFNNSWMSWVRQAPGKGLEWVSNITSSSSMTHYADSVKGRFTISRDNSKNTLYLQMNSLRAEDTAVYYCARKGMSFYNNKYAKSMFDLWGQGTLVTVSS
# VL: DIELTQPPSVSVAPGQTARISCSGDNLGKKYVHWYQQKPGQAPVLVIYYDSKRPSGIPERFSGSNSGNTATLTISGTQAEDEADYYCSAWTTTMMHIVFGGGTKLTVLG
# notes: Monomeric HuCAL Fab, purified, MH-tagged
# B3: MOR03641 Fab (Fab, V domains shown)
# VH: QVQLVQSGAEVKKPGSSVKVSCKASGGTFSTYAISWVRQAPGQGLEWMGRIIPIFGTANYAQKFQGRVTITADESTSTAYMELSSLRSEDTAVYYCARSSYTILTTYYNYNAMDNWGQGTLVTVSS
# VL: DIQMTQSPSSLSASVGDRVTITCRASQNINNFLNWYQQKPGKAPKLLIYGSSILQSGVPSRFSGSGSGTDFTLTISSLQPEDFAVYYCHQVSDTSDTFGQGTKVEIKR
# notes: Monomeric HuCAL Fab (VH1A, kappa1), purified, MH-tagged; also called 3541 [sic]
# Experiments:
# [1] = biological target: T1, recombinant murine EphB4-Fc fusion …; assay: competition ELISA, Fab against EphrinB2-Fc on immobilized murine EphB4
# Procedure: (§1) IC₅₀ values were determined using recombinant antigen (murine and human EphB4) in an ELISA and on transfected cells in a FACS analysis (human EphB4 receptor).
# (§2) Binding of (a fixed concentration of) the ligand EphrinB2-Fc to immobilized EphB4 receptor on an ELISA plate or on transfected cells is titrated with anti-EphB4 Fab. The IC₅₀ is determined as the amount of Fab at which the binding of EphrinB2 is inhibited by 50%.
# [2] = biological target: T2, myc-tagged human EphB4 on transfected …; assay: FACS competition on CHO-hEphB4 cells, competitor biotinylated mEphrinB2 250 ng/mL
# Procedure: CHO-hEphB4 cells were trypsinized, washed and resuspended in FACS buffer (PBS/1% BSA) containing anti-EphB4 antibody at different concentrations and incubated at 4° C. for 30 min. Cells were washed in FACS buffer and resuspended in FACS buffer containing biotinylated mEphrinB2 at 250 ng/mL and incubated at 4° C. for 1 hr. cells were washed in FACS buffer and resuspended in FACS buffer containing Streptavidin-PE and incubated at 4° C. for 30 min. After a final wash step, cell staining was analyzed in a Becton Dickinson FACS.
# [3] = biological target: T1, recombinant murine EphB4-Fc fusion …; assay: Biacore, EphB4-Fc on chip
# Procedure: (§3) The affinity of the antibody fragments was determined using BIACORE™ analysis and cell ELISA. The Biacore chip was coated with recombinant human or murine EphB4-Fc fusion protein.
# [4] = biological target: T3, recombinant human EphB4-Fc fusion …; assay: Biacore, EphB4-Fc on chip
# Procedure: as §3
# [5] = biological target: T2, myc-tagged human EphB4 on transfected …; assay: FACS, Fab against EphrinB2-Fc on hEphB4-transfected cells
# Procedure: as §1, §2
Binder,IC50 [1],IC50 (read off the curve) [2],Kd [3],Kd [4],IC50 [5]
B1,22 µg/mL,~2 µg/mL,43 nM,13 nM,2.8 µg/mL
B2,117 µg/mL,~0.4 µg/mL,4 nM,1.8 nM,2.1 µg/mL
B3,24 µg/mL,~1 µg/mL,151 nM,35 nM,4.4 µg/mL

# From patent publication US20090137002A1 (published 2009)
